Results: PMC12416549 (2024)
Substitutions are numbered along the chain they refer to. Numbers in names are those of the source.

B1: R8L (designed binder)
chain: MTLQELLLEEALRRAEAEAFRYALELLAEKFPEQKEYLLDLAEEIESQIRSLSGVDVEDVRKFLDKEWAWVKELLAEHPAELAEVEAARAARLAELRAEVEAKVAA
B2: E81L (designed binder)
chain: B1 chain with L8R, E81L
B3: A15M (designed binder)
chain: B1 chain with L8R, A15M
B4: A83Y (designed binder)
chain: B1 chain with L8R, A83Y
B5: V104A (designed binder)
chain: B1 chain with L8R, V104A
B6: E67L (designed binder)
chain: B1 chain with L8R, E67L
B7: A91I (designed binder)
chain: B1 chain with L8R, A91I
B8: L27D (designed binder)
chain: B1 chain with L8R, L27D
B9: E43N (designed binder)
chain: B1 chain with L8R, E43N
B10: L6Q (designed binder)
chain: B1 chain with L6Q, L8R
B11: G54I (designed binder)
chain: B1 chain with L8R, G54I
B12: A19R (designed binder)
chain: B1 chain with L8R, A19R
B13: R61N (designed binder)
chain: B1 chain with L8R, R61N
B14: D65F (designed binder)
chain: B1 chain with L8R, D65F
B15: F31K (designed binder)
chain: B1 chain with L8R, F31K
B16: V104H (designed binder)
chain: B1 chain with L8R, V104H
B17: H78F (designed binder)
chain: B1 chain with L8R, H78F
B18: R13E (designed binder)
chain: B1 chain with L8R, R13E
B19: A80R (designed binder)
chain: B1 chain with L8R, A80R
B20: A23Q (designed binder)
chain: B1 chain with L8R, A23Q
B21: Y22S (designed binder)
chain: B1 chain with L8R, Y22S
B22: L6P (designed binder)
chain: B1 chain with L6P, L8R
B23: R89M (designed binder)
chain: B1 chain with L8R, R89M
B24: L93K (designed binder)
chain: B1 chain with L8R, L93K
B25: D40T (designed binder)
chain: B1 chain with L8R, D40T
B26: A23Y (designed binder)
chain: B1 chain with L8R, A23Y
B27: L82Q (designed binder)
chain: B1 chain with L8R, L82Q
B28: W70G (designed binder)
chain: B1 chain with L8R, W70G
B29: V100M (designed binder)
chain: B1 chain with L8R, V100M
B30: E58L (designed binder)
chain: B1 chain with L8R, E58L
B31: E77N (designed binder)
chain: B1 chain with L8R, E77N
B32: I45G (designed binder)
chain: B1 chain with L8R, I45G
B33: E84G (designed binder)
chain: B1 chain with L8R, E84G
B34: E33M (designed binder)
chain: B1 chain with L8R, E33M
B35: R13W (designed binder)
chain: B1 chain with L8R, R13W
B36: A23F (designed binder)
chain: B1 chain with L8R, A23F
B37: D40R (designed binder)
chain: B1 chain with L8R, D40R
B38: L26I (designed binder)
chain: B1 chain with L8R, L26I
B39: A17L (designed binder)
chain: B1 chain with L8R, A17L
B40: Q4C (designed binder)
chain: B1 chain with Q4C, L8R
B41: A105L (designed binder)
chain: B1 chain with L8R, A105L
B42: E84M (designed binder)
chain: B1 chain with L8R, E84M
B43: R14G (designed binder)
chain: B1 chain with L8R, R14G

Target: T1, TNFR1 (Homo sapiens, UniProt P19438)
T1 chain: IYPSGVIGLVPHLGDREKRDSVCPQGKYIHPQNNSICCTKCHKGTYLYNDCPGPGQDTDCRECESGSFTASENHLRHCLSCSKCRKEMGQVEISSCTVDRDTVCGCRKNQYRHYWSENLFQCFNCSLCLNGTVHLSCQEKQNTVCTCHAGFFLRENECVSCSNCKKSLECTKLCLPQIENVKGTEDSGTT
Assay: yeast display SC50

Binder	apparent Kd (screen) [nM]
B1	0.869
B2	0.653
B3	0.653
B4	0.718
B5	0.653
B6	10.4
B7	0.956
B8	0.142
B9	0.446
B10	4.83
B11	2.48
B12	3.99
B13	1.86
B14	0.653
B15	1.16
B16	1.16
B17	0.446
B18	0.405
B19	0.593
B20	0.539
B21	0.79
B22	4.39

Binder	apparent Kd (screen) [nM]
B23	0.869
B24	0.718
B25	3
B26	1.4
B27	0.956
B28	16.7
B29	0.49
B30	0.446
B31	0.49
B32	8.56
B33	0.539
B34	0.49
B35	0.252
B36	1.16
B37	12.5
B38	0.653
B39	0.277
B40	0.539
B41	0.653
B42	0.956
B43	0.539
